Patent publication US20030232420A1 (SEQUENOM, published 2003)
Ends that are not written are not given here.

B1: AKB (RI), RI specific (SEQ ID NO:103) FEELAWKIAKMIWSDVFQQC, rhodamine-labeled (peptide)
peptide: FEELAWKIAKMIWSDVFQQC(tetramethylrhodamine‑5‑maleimide)-NH2
notes: also called PV-38; RIα-specific (Q9F, V21W, M25F)
B2: VQGNTDEAQEELAWKIAKMIVSDIMQQ (SEQ ID NO:1), cellulose-bound (peptide)
peptide: VQGNTDEAQEELAWKIAKMIVSDIMQQ
modifications: also: cellulose-bound
notes: also called Ile variant 27-mer; I24 peptide
B3: AKB (null) (SEQ ID NO:110) VQGNTDEAQEELAWKIEKMIWSDVMQQC, rhodamine-labeled (peptide)
peptide: VQGNTDEAQEELAWKIEKMIWSDVMQQC(tetramethylrhodamine‑5‑maleimide)-NH2
notes: also called null peptide (A17E and V21W)
B4: VQGNTDEAQEELAWKIAKMIVSDVMQQ (SEQ ID NO:2), cellulose-bound (peptide)
peptide: VQGNTDEAQEELAWKIAKMIVSDVMQQ
modifications: also: cellulose-bound
notes: also called Val variant 27-mer; V24 peptide

How the values were obtained:
[1] = target: T1, Full-length bovine RIα (bovine, UniProt P00514 1-380); assay: fluorescence anisotropy, labeled peptide with increasing full-length RIα; the concentration on the axis is that of the protein
T1 construct: mature; given as full-length
Procedure: (§1) Binding of each fluorescently labeled peptide to the regulatory subunits was monitored using fluorescence anisotropy. RIα and RIIα were serially diluted beginning at 1 μM and 0.1 μM, respectively, into 10 mM HEPES pH 7.4, 0.15 M NaCl, 3 mM EDTA, 0.005% Surfactant P20 (Biacore) containing either 10 nM or 1 nM of fluorescently labeled peptide for RIα and RIIα, respectively. The samples were equilibrated for at least 1 hour at room temperature and fluorescence anisotropy monitored using a Fluoromax-2 (Jobin Yvon Horiba, SPEX Division, Edison, N.J.) equipped with Glan-Thompson polarizers. The rhodamine-labeled peptide was excited at 541 nm (5-10 nm bandpass) and emission monitored at 575 nm (5-10 nm bandpass). The anisotropy was calculated directly with the Fluoromax software using the following equation: […]
(§2) The binding affinities of three peptides designated RIIα-specific (A13L; SEQ ID NO:109), RIα-specific (Q9F, V21W, and M25F; SEQ ID NO:103) and null (A17E and V21W; SEQ ID NO:110) were compared with the unsubstituted peptide (FIG. 2 and Table 7) using fluorescence anisotropy. […] The null peptide bound very poorly to RIα and binding to RIIα could not be detected (FIG. 2).

[2] = target: T1, Full-length bovine RIα; assay: fluorescence anisotropy
[3] = target: T2, Full-length murine RIIα (murine, UniProt P12367 2-401); assay: fluorescence anisotropy, labeled peptide
T2 construct: mature; given as full-length
Procedure: as §1
(§3) Several additional truncated and substituted peptides were synthesized and their affinity to RIα and RIIα evaluated using fluorescence anisotropy (see Table 8). Binding was evaluated for both RIα and RIIα0 using fluorescence anisotropy as described herein. Substituted residues are in bold Table 8. Tryptophan at a position corresponding to residue 21 of SEQ ID NO:2 is important for discriminating against binding to the RIIα subunit.

[4] = target: T1, Full-length bovine RIα; assay: fluorescence anisotropy, labeled peptide
Procedure: as §1, §3

[5] = target: T2, Full-length murine RIIα; assay: fluorescence anisotropy, labeled peptide, n = 3
Procedure: as §1, §2

[6] = target: T1, Full-length bovine RIα; assay: fluorescence anisotropy, labeled peptide, n = 3
Procedure: as §1, §2

[7] = target: T2, Full-length murine RIIα; assay: fluorescence anisotropy, labeled peptide with increasing full-length RIIα; the concentration on the axis is that of the protein
Procedure: as §1, §2

[8] = target: T3, GFP-RIα D/D (bovine, UniProt P00514 1-109); assay: SPOT peptide array, anti-GFP detection
T3 construct: range 1-109; His tag cleaved with thrombin; also called dimerization/docking (D/D) domain of bovine RIα (residues 1-109) fused to GFP; not shown: green fluorescent protein (GFP)

[9] = target: T4, GFP-RIIα D/D (mouse, UniProt P12367 1-46); assay: SPOT peptide array, anti-GFP detection
T4 construct: range 1-46; His tag cleaved with thrombin; also called GFP-RII D/D; D/D domain of mouse RIIα (residues 1-46) fused to GFP; not shown: green fluorescent protein (GFP)

[10] = target: T5, PKA-RIIα-GFP (UniProt P42212 1-238 = GFP); assay: SPOT membrane, anti-GFP detection
T5 construct: it may be the same construct as m8; also called PKA-RIIa-GFP
Procedure: Substitution analysis of both allelic peptides ([…]; SEQ ID NO:2 and […]; SEQ ID NO:1) was conducted. Each amino acid of the 27-mer peptide was substituted, one amino acid at a time per peptide, by any naturally occurring L- and D- amino acid. For both peptides complete L- and D- substitution analysis membranes have been screened for binding of PKA-RIα-GFP. After regeneration, the peptide arrays were incubated with PKA-RIIα-GFP. After binding, detection was carried out with an anti-GFP antibody in combination with a peroxidase-labeled secondary antibody.

[11] = target: T6, RIα isoform of the PKA regulatory subunit (Bos taurus (Bovine), UniProt P00514 2-380); assay: fluorescence anisotropy
T6 construct: also called R1α; PKA-RIα
T6 sequence (P00514 2-380 limits assumed): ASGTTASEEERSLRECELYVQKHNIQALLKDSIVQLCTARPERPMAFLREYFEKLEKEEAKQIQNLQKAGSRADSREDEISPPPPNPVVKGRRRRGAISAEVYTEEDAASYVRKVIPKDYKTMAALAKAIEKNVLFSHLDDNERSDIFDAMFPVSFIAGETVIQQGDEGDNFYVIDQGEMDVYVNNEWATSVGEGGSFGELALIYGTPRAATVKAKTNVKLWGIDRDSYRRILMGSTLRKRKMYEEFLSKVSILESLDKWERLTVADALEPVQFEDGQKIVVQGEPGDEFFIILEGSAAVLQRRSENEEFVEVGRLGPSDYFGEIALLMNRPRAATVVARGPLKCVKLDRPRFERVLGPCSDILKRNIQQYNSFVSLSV

T2 sequence (P12367 2-401): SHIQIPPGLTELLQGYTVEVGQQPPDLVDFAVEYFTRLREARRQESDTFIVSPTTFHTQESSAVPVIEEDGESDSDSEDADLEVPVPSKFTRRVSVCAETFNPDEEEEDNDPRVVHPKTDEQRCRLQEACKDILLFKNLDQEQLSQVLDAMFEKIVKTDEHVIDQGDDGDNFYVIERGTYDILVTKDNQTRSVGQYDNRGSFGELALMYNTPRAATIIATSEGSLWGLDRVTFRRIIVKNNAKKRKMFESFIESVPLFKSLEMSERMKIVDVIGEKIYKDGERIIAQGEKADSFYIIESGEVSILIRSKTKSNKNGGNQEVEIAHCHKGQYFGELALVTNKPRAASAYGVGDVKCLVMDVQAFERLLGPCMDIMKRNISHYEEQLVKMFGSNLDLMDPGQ
T1 sequence (P00514 whole entry): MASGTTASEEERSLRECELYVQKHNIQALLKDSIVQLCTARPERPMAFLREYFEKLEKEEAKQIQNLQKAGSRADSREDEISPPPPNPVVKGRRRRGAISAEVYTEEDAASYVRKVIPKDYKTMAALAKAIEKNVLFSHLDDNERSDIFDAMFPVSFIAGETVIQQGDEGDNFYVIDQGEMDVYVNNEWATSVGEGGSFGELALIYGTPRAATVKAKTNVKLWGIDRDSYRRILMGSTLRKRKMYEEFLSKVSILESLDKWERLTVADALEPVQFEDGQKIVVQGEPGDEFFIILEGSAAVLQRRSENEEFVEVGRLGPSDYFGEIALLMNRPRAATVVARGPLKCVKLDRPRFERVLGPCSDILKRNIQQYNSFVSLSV
T4 sequence (P12367 1-46): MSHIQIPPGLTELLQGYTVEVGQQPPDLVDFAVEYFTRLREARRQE
T3 sequence (P00514 1-109): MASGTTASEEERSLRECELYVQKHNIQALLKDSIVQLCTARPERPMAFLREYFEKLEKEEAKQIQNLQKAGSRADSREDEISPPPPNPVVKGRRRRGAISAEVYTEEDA

Binder	EC50 (read off the curve) [1] [nM]	Kd [3] [nM]	Kd [4] [nM]	Kd [5] [nM]	Kd [6] [nM]	EC50 (read off the curve) [7] [nM]	fold signal intensity against PKA-RIα-GFP [10] [fold]	other results
B1	~10	456	5.2	456	5.2	~500	–	fold enhancement of binding against the unsubstituted peptide [2]: 10 fold
B2	–	–	–	–	–	–	~10	binding result [8]: binds; binding result [9]: binds
VQGNTDEAQEELAWKIAKMIVSDVMQQC(tetramethylrhodamine‑5‑maleimide)-NH2 (also called unsubstituted peptide) [AKB (dual), WT (SEQ ID NO:108) VQGNTDEAQEELAWKIAKMIVSDVMQQC, rhodamine-labeled]	~50	2.2	48	2.2	48	~3	–	fold increase in binding affinity against the Ile variant [11]: ~3 fold
B3	–	–	–	> 10000	998	–	–	–
VQGNTDEAQEELLWKIAKMIVSDVMQQC(tetramethylrhodamine‑5‑maleimide)-NH2 (also called RIIα-specific (A13L)) [AKB (RII), RII specific (SEQ ID NO:109) VQGNTDEAQEELLWKIAKMIVSDVMQQC, rhodamine-labeled]	–	–	–	2.7	2490	~3	–	–
B4	–	–	–	–	–	–	~10	–
